# B1: ATAD3A (protein, UniProt Q9NVI7 2-586, looked up)
# ATPase family AAA …: SWLFGINKGPKGEGAGPPPPLPPAQPGAEGGGDRGLGDRPAPKDKWSNFDPTGLERAAKAARELEHSRYAKDALNLAQMQEQTLQLEQQSKLKEYEAAVEQLKSEQIRAQAEERRKTLSEETRQHQARAQYQDKLARQRYEDQLKQQQLLNEENLRKQEESVQKQEAMRRATVEREMELRHKNEMLRVEAEARARAKAERENADIIREQIRLKAAEHRQTVLESIRTAGTLFGEGFRAFVTDWDKVTATVAGLTLLAVGVYSAKNATLVAGRFIEARLGKPSLVRETSRITVLEALRHPIQVSRRLLSRPQDALEGVVLSPSLEARVRDIAIATRNTKKNRSLYRNILMYGPPGTGKTLFAKKLALHSGMDYAIMTGGDVAPMGREGVTAMHKLFDWANTSRRGLLLFVDEADAFLRKRATEKISEDLRATLNAFLYRTGQHSNKFMLVLASNQPEQFDWAINDRINEMVHFDLPGQEERERLVRMYFDKYVLKPATEGKQRLKLAQFDYGRKCSEVARLTEGMSGREIAQLAVSWQATAYASEDGVLTEAMMDTRVQDAVQQHQQKMCWLKAEGPGRGDEPSPS
# B2: DHX30 (protein, UniProt Q7L2E3 1-1194, looked up)
# ATP-dependent RNA helicase …: MFSLDSFRKDRAQHRQRQCKLPPPRLPPMCVNPTPGGTISRASRDLLKEFPQPKNLLNSVIGRALGISHAKDKLVYVHTNGPKKKKVTLHIKWPKSVEVEGYGSKKIDAERQAAAAACQLFKGWGLLGPRNELFDAAKYRVLADRFGSPADSWWRPEPTMPPTSWRQLNPESIRPGGPGGLSRSLGREEEEDEEEELEEGTIDVTDFLSMTQQDSHAPLRDSRGSSFEMTDDDSAIRALTQFPLPKNLLAKVIQIATSSSTAKNLMQFHTVGTKTKLSTLTLLWPCPMTFVAKGRRKAEAENKAAALACKKLKSLGLVDRNNEPLTHAMYNLASLRELGETQRRPCTIQVPEPILRKIETFLNHYPVESSWIAPELRLQSDDILPLGKDSGPLSDPITGKPYVPLLEAEEVRLSQSLLELWRRRGPVWQEAPQLPVDPHRDTILNAIEQHPVVVISGDTGCGKTTRIPQLLLERYVTEGRGARCNVIITQPRRISAVSVAQRVSHELGPSLRRNVGFQVRLESKPPSRGGALLFCTVGILLRKLQSNPSLEGVSHVIVDEVHERDVNTDFLLILLKGLQRLNPALRLVLMSATGDNERFSRYFGGCPVIKVPGFMYPVKEHYLEDILAKLGKHQYLHRHRHHESEDECALDLDLVTDLVLHIDARGEPGGILCFLPGWQEIKGVQQRLQEALGMHESKYLILPVHSNIPMMDQKAIFQQPPVGVRKIVLATNIAETSITINDIVHVVDSGLHKEERYDLKTKVSCLETVWVSRANVIQRRGRAGRCQSGFAYHLFPRSRLEKMVPFQVPEILRTPLENLVLQAKIHMPEKTAVEFLSKAVDSPNIKAVDEAVILLQEIGVLDQREYLTTLGQRLAHISTDPRLAKAIVLAAIFRCLHPLLVVVSCLTRDPFSSSLQNRAEVDKVKALLSHDSGSDHLAFVRAVAGWEEVLRWQDRSSRENYLEENLLYAPSLRFIHGLIKQFSENIYEAFLVGKPSDCTLASAQCNEYSEEEELVKGVLMAGLYPNLIQVRQGKVTRQGKFKPNSVTYRTKSGNILLHKSTINREATRLRSRWLTYFMAVKSNGSVFVRDSSQVHPLAVLLLTDGDVHIRDDGRRATISLSDSDLLRLEGDSRTVRLLKELRRALGRMVERSLRSELAALPPSVQEEHGQLLALLAELLRGPCGSFDVRKTADD
# B3: CCDC124 (protein, UniProt Q96CT7 1-223, looked up)
# Coiled-coil domain-containing …: MPKKFQGENTKSAAARARRAEAKAAADAKKQKELEDAYWKDDDKHVMRKEQRKEEKEKRRLDQLERKKETQRLLEEEDSKLKGGKAPRVATSSKVTRAQIEDTLRRDHQLREAPDTAEKAKSHLEVPLEENVNRRVLEEGSVEARTIEDAIAVLSVAEEAADRHPERRMRAAFTAFEEAQLPRLKQENPNMRLSQLKQLLKKEWLRSPDNPMNQRAVPFNAPK
# B4: ABCF2 (protein, UniProt Q9UG63 1-623, looked up)
# ATP-binding cassette …: MPSDLAKKKAAKKKEAAKARQRPRKGHEENGDVVTEPQVAEKNEANGRETTEVDLLTKELEDFEMKKAAARAVTGVLASHPNSTDVHIINLSLTFHGQELLSDTKLELNSGRRYGLIGLNGIGKSMLLSAIGKREVPIPEHIDIYHLTREMPPSDKTPLHCVMEVDTERAMLEKEAERLAHEDAECEKLMELYERLEELDADKAEMRASRILHGLGFTPAMQRKKLKDFSGGWRMRVALARALFIRPFMLLLDEPTNHLDLDACVWLEEELKTFKRILVLVSHSQDFLNGVCTNIIHMHNKKLKYYTGNYDQYVKTRLELEENQMKRFHWEQDQIAHMKNYIARFGHGSAKLARQAQSKEKTLQKMMASGLTERVVSDKTLSFYFPPCGKIPPPVIMVQNVSFKYTKDGPCIYNNLEFGIDLDTRVALVGPNGAGKSTLLKLLTGELLPTDGMIRKHSHVKIGRYHQHLQEQLDLDLSPLEYMMKCYPEIKEKEEMRKIIGRYGLTGKQQVSPIRNLSDGQKCRVCLAWLAWQNPHMLFLDEPTNHLDIETIDALADAINEFEGGMMLVSHDFRLIQQVAQEIWVCEKQTITKWPGDILAYKEHLKSKLVDEEPQLTKRTHNV
# B5: DDOST (protein, UniProt P39656 43-456, looked up)
# Dolichyl-diphosphooligosacchar …: SGPRTLVLLDNLNVRETHSLFFRSLKDRGFELTFKTADDPSLSLIKYGEFLYDNLIIFSPSVEDFGGNINVETISAFIDGGGSVLVAASSDIGDPLRELGSECGIEFDEEKTAVIDHHNYDISDLGQHTLIVADTENLLKAPTIVGKSSLNPILFRGVGMVADPDNPLVLDILTGSSTSYSFFPDKPITQYPHAVGKNTLLIAGLQARNNARVIFSGSLDFFSDSFFNSAVQKAAPGSQRYSQTGNYELAVALSRWVFKEEGVLRVGPVSHHRVGETAPPNAYTVTDLVEYSIVIQQLSNGKWVPFDGDDIQLEFVRIDPFVRTFLKKKGGKYSVQFKLPDVYGVFQFKVDYNRLGYTHLYSSTQVSVRPLQHTQYERFIPSAYPYYASAFSMMLGLFIFSIVFLHMKEKEKSD
# B6: SLC25A13 (protein, UniProt Q9UJS0 2-675, looked up)
# Electrogenic …: AAAKVALTKRADPAELRTIFLKYASIEKNGEFFMSPNDFVTRYLNIFGESQPNPKTVELLSGVVDQTKDGLISFQEFVAFESVLCAPDALFMVAFQLFDKAGKGEVTFEDVKQVFGQTTIHQHIPFNWDSEFVQLHFGKERKRHLTYAEFTQFLLEIQLEHAKQAFVQRDNARTGRVTAIDFRDIMVTIRPHVLTPFVEECLVAAAGGTTSHQVSFSYFNGFNSLLNNMELIRKIYSTLAGTRKDVEVTKEEFVLAAQKFGQVTPMEVDILFQLADLYEPRGRMTLADIERIAPLEEGTLPFNLAEAQRQKASGDSARPVLLQVAESAYRFGLGSVAGAVGATAVYPIDLVKTRMQNQRSTGSFVGELMYKNSFDCFKKVLRYEGFFGLYRGLLPQLLGVAPEKAIKLTVNDFVRDKFMHKDGSVPLAAEILAGGCAGGSQVIFTNPLEIVKIRLQVAGEITTGPRVSALSVVRDLGFFGIYKGAKACFLRDIPFSAIYFPCYAHVKASFANEDGQVSPGSLLLAGAIAGMPAASLVTPADVIKTRLQVAARAGQTTYSGVIDCFRKILREEGPKALWKGAGARVFRSSPQFGVTLLTYELLQRWFYIDFGGVKPMGSEPVPKSRINLPAPNPDHVGGYKLAVATFAGIENKFGLYLPLFKPSVSTSKAIGGGP
# B7: CKAP4 (protein, UniProt Q07065 1-602, looked up)
# Cytoskeleton-associated …: MPSAKQRGSKGGHGAASPSEKGAHPSGGADDVAKKPPPAPQQPPPPPAPHPQQHPQQHPQNQAHGKGGHRGGGGGGGKSSSSSSASAAAAAAAASSSASCSRRLGRALNFLFYLALVAAAAFSGWCVHHVLEEVQQVRRSHQDFSRQREELGQGLQGVEQKVQSLQATFGTFESILRSSQHKQDLTEKAVKQGESEVSRISEVLQKLQNEILKDLSDGIHVVKDARERDFTSLENTVEERLTELTKSINDNIAIFTEVQKRSQKEINDMKAKVASLEESEGNKQDLKALKEAVKEIQTSAKSREWDMEALRSTLQTMESDIYTEVRELVSLKQEQQAFKEAADTERLALQALTEKLLRSEESVSRLPEEIRRLEEELRQLKSDSHGPKEDGGFRHSEAFEALQQKSQGLDSRLQHVEDGVLSMQVASARQTESLESLLSKSQEHEQRLAALQGRLEGLGSSEADQDGLASTVRSLGETQLVLYGDVEELKRSVGELPSTVESLQKVQEQVHTLLSQDQAQAARLPPQDFLDRLSSLDNLKASVSQVEADLKMLRTAVDSLVAYSVKIETNENNLESAKGLLDDLRNDLDRLFVKVEKIHEKV
# B8: RFC1 (protein, UniProt P35251 1-1148, looked up)
# Replication factor C subunit 1: MDIRKFFGVIPSGKKLVSETVKKNEKTKSDEETLKAKKGIKEIKVNSSRKEDDFKQKQPSKKKRIIYDSDSESEETLQVKNAKKPPEKLPVSSKPGKISRQDPVTYISETDEEDDFMCKKAASKSKENGRSTNSHLGTSNMKKNEENTKTKNKPLSPIKLTPTSVLDYFGTGSVQRSNKKMVASKRKELSQNTDESGLNDEAIAKQLQLDEDAELERQLHEDEEFARTLAMLDEEPKTKKARKDTEAGETFSSVQANLSKAEKHKYPHKVKTAQVSDERKSYSPRKQSKYESSKESQQHSKSSADKIGEVSSPKASSKLAIMKRKEESSYKEIEPVASKRKENAIKLKGETKTPKKTKSSPAKKESVSPEDSEKKRTNYQAYRSYLNREGPKALGSKEIPKGAENCLEGLIFVITGVLESIERDEAKSLIERYGGKVTGNVSKKTNYLVMGRDSGQSKSDKAAALGTKIIDEDGLLNLIRTMPGKKSKYEIAVETEMKKESKLERTPQKNVQGKRKISPSKKESESKKSRPTSKRDSLAKTIKKETDVFWKSLDFKEQVAEETSGDSKARNLADDSSENKVENLLWVDKYKPTSLKTIIGQQGDQSCANKLLRWLRNWQKSSSEDKKHAAKFGKFSGKDDGSSFKAALLSGPPGVGKTTTASLVCQELGYSYVELNASDTRSKSSLKAIVAESLNNTSIKGFYSNGAASSVSTKHALIMDEVDGMAGNEDRGGIQELIGLIKHTKIPIICMCNDRNHPKIRSLVHYCFDLRFQRPRVEQIKGAMMSIAFKEGLKIPPPAMNEIILGANQDIRQVLHNLSMWCARSKALTYDQAKADSHRAKKDIKMGPFDVARKVFAAGEETAHMSLVDKSDLFFHDYSIAPLFVQENYIHVKPVAAGGDMKKHLMLLSRAADSICDGDLVDSQIRSKQNWSLLPAQAIYASVLPGELMRGYMTQFPTFPSWLGKHSSTGKHDRIVQDLALHMSLRTYSSKRTVNMDYLSLLRDALVQPLTSQGVDGVQDVVALMDTYYLMKEDFENIMEISSWGGKPSPFSKLDPKVKAAFTRAYNKEAHLTPYSLQAIKASRHSTSPSLDSEYNEELNEDDSQSDEKDQDAIETDAMIKKKTKSSKPSKPEKDKEPRKGKGKSSKK
# Test system: GFP-14-3-3β
# Assay: GFP-14-3-3β co-IP with LC-MS/MS, untreated GFP-14-3-3β versus GFP control (14-3-3 interactome)
# Format: binding, human
# Settings: log2 difference; pairwise comparison untreated vs GFP, label-free quantification, 3 replicates each
row,Molecule,"Difference (log2), untreated vs GFP"
1,B1,-0.296
2,B2,0.9044
3,B3,0.7429
4,B4,-0.5576
5,B5,-0.4067
6,B6,0.4406
7,B7,-0.6332
8,B8,0.4473

# Test system: GFP-14-3-3β and its binding proteins
# Assay: GFP-14-3-3β co-IP with LC-MS/MS label-free quantification, untreated versus PP1c-treated
# Design: species or system human
# Settings: log2 difference; pairwise comparison PP1 vs untreated, label-free quantification, 3 replicates each
row,Molecule,"Difference (log2), PP1 vs untreated"
1,B1,1.381
2,B2,1.371
3,B3,1.402
4,B4,1.378
5,B5,1.381
6,B6,1.412
7,B7,1.432
8,B8,1.349

# From paper PMC7367873, “Dissecting the sequence determinants for dephosphorylation by the catalytic subunits of phosphatases PP1 and PP2A” (Nature Communications, 2020)
